Test [1] has as its target HIV-1 IIIB viral envelope protein gp41 (HIV-1 IIIB) (UniProt P04578). As to the kind of experiment: cell-based or functional assay.
In test [2] the target is HIV-1 IIIB viral envelope protein gp41 (HIV-1 IIIB, UniProt P04578 512-856). As to the kind of experiment: cell-based or functional assay.

The record followed here is patent US20050089840A1 (FRONTIER BIOTECHNOLOGIES, published 2005).

In test [1], “FB006M conjugated with human serum albumin (HSA) (from UniProt P02768 25-609)” yielded an IC50 (nM), 50% viral inhibition drug concentration, HIV-1 IIIB in fresh human PBMC cultures of 3.94 nM and a fold increase of the antiviral IC50 against FB006 of 2.8 fold.
Consider Ac-SLEQIWNNMTWEEWDREINNYTELIHELIEESQNQQEKNEQELL-NH2 [FB005], for which the “IC50 (nM), 50% viral inhibition drug concentration, HIV-1 IIIB in fresh human PBMC cultures” value in test [2] worked out at 0.93 nM.
Still for that read-out and setting: under Ac-WEEWDREINNYTKLIHELIEESQNQQEKNEQELL-NH2 [FB006] stands 1.41 nM.
